According to US20210023121A1, “THROMBIN-RESPONSIVE HYDROGELS AND DEVICES FOR AUTO-ANTICOAGULANT REGULATION” (North Carolina State University, priority 2017, published 2021):

Molecular target: T1, thrombin (Bos taurus, UniProt P00735)
T1 construct: purchased Sigma-Aldrich
Experiment: LC-MS analysis of peptide cleavage by thrombin
Type: biochemical
Details: 12 h incubation with 1 U mL^-1 thrombin in Tris buffer pH 7.4
Protocol: LC-MS analysis of peptide cleavage. Peptide with sequence GGLVPR|GSGGC (SEQ ID NO:1) was incubated with thrombin (1 U/mL) in Tris buffer (20 mM Tris, 150 mM NaCl, 2.5 mM KCl, pH 7.4) for 12 h.

Sequence: GGLVPRGSGGC [thrombin cleavable peptide, linker peptide cleaved by thrombin between Arg and Gly]
- cleavage of the peptide by thrombin (LCMS): efficiently cleaved
